The record followed here is US6570069B1, “Nucleic acids encoding plant inhibitors of apoptosis and transgenic cells and plants expressing them” (priority 2000, dated 2003).

Assay [1] relates to Fas-induced apoptosis in HEK293 cells. Description: Fas-induced apoptosis in HEK293 cells (co-transfection, DAPI nuclear morphology). Type of assay: cell-based, human. The settings on record: IAP plasmid co-transfected with Fas into HEK293 cells; % apoptosis 24-36 hours later. Here is the method:
HEK293 and 293T cells were maintained in DMEM (Irvine Scientific) supplemented with 10% fetal bovine serum, 1 mM L-glutamine and antibiotics. 293 cells (10^6) were co-transfected using Superfect with 0.1 μg Green Fluoresence Protein (GFP) marker plasmid pEGFP (Clontech), 0.25 ug of either pcDNA3-Bax or pcDNA3-Fas, and 1.5 μg of either pcDNA3myc-SfIAP or pcDNA3myc-CpIAP. Alternatively, cells were co-transfected with 0.35 μg pcDNA3-caspase-9-Flag and 2.1 μg of either SfIAP or CpIAP. […] In some cases, lysates were prepared from transfected cells, normalized for total protein content, and analyzed by SDS-PAGE/immunoblotting as described (Deveraux, Q., et al., (1997) supra; Deveraux, Q. L., et al. (1998) supra; Roy, N. et al. (1997) supra; Takahashi, R., et al., (1998), supra.).
Baculoviral IAPs have been reported to protect mammalian cells from some apoptotic stimuli (Hawkins, C. J. et al., (1996) Proc. Natl. Acad. Sci. USA 93, 13786-13790; Hawkins, C. et al., (1998) Cell Death and Differentiation 5, 569-576; Uren, A. G. et al., (1996) Proc. Natl. Acad. Sci. USA 93, 4974-4978). Tests were performed to determine whether SfIAP is also capable of functioning as an apoptosis suppressor in a mammalian cell context. […]
Plasmids encoding various IAPs were co-transfected with Bax or Fas into 293 cells and % apoptosis was determined 24-36 hours later.

The target of assay [2] is T1, caspase-3 (Homo sapiens, UniProt P42574).
T1 construct: His6 (C); made in house
T1 sequence (P42574 29-175 limits assumed): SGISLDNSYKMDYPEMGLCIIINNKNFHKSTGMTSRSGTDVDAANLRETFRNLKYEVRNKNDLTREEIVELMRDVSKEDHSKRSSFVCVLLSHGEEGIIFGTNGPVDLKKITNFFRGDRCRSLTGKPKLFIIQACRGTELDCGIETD
T1 sequence (P42574 176-277 limits assumed): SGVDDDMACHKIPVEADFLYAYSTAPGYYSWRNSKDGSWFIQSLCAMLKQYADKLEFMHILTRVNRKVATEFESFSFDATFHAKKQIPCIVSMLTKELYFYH
Description: Binding to recombinant purified caspase-3. Details: species or system mammalian. Here is the method: pGEX4T-1-SfIAP and pGEX4T-1 -CpIAP plasmids were introduced into E. coli strain BL21 (DE3) containing the plasmid pT-Trx. GST fusion proteins were obtained by induction with 0.05 mM IPTG at 25° C. for 8 hours, then purified using glutathione-Sepharose, essentially as described (Deveraux, Q., Welsh, K. & Reed, J. Methods of Enzymology in press). Caspases-3, and -7, containing C-terminal His6-tags, and caspase-8 containing an N-terminal His6-tag were purified as described previously (Stennicke, H. R. & Salvesen, G. S. (I1997) J. Biol. Chem. 272, 25719-25723; Stennicke, H., et al., (1998) J. Biol. Chem. 273, 27084-27090; Stennicke, H., et al., (1999) J. Biol. Chem. 274, 8359-8362). Caspase-9 lacking the CARD domain (ΔCARD-caspase-9) was constructed by truncating the cDNA and introducing a start codon substituting Val139. The resulting cDNA was subcloned into pET-23b and expressed in BL21 (DE3), yielding fully processed enzyme when cells were induced using 0.2 mM IPTG at OD600=0.6 for 4 hrs (Stennicke, H., Deveraux, Q., Humike, E., Reed, J., Dixit, V. & Salvesen, G. (1999) J. Biol. Chem. 274, 8359-8362). […] Concentrations of purified enzymes were determined from absorbance at 280 nm based on the molar absorption coefficients: caspase-3 (A280=26,000M−1 cm−1), caspase-7 (A280=24,500 M−1 cm−1), caspase-9 (A280=30,010M−1 cm−1). […]

B1: CpIAP: baculoviral (CpGV) inhibitor of apoptosis protein; complete ORF expressed myc-tagged or as GST-fusion (protein)
chain: MSDLRLEEVRLNTFEKWPVSFLSPETMAKNGFYYLGRSDEVRCAFCKVEIMRWKEGEDPAADHKKWAPQCPFVKGIDVCGSIVTTNNIQNTTTHDTIIGPAHPKYAHEAARVKSFHNWPRCMKQRPEQMADAGFFYTGYGDNTKCFYCDGGLKDWEPEDVPWEQHVRWFDRCAYVQLVKGRDYVQKVITEACVLPGENTTVSTAAPVSEPIPETKIEKEPQVEDSKLCKICYVEECIVCFVPCGHVVACAKCALSVDKCPMCRKIVTSVLKVYFS
modifications: left off: a dimerising Fc or GST
notes: complete ORF expressed myc-tagged or as GST-fusion
For the molecule B1, the “suppression of Fas-induced apoptosis” value in assay [1] is given as “ineffective at suppressing Fas-induced apoptosis”. In assay [2], the “binding to caspase-3” value is reported as “neither bound”.

B2: SfIAP: cellular IAP cloned from Spodoptera frugiperda, protein of 377 amino acids (SEQ ID NO:3); GST-fusion when recombinant (protein, listed as Spodoptera frugiperda)
chain: MWSCSLPCWNTKKSGLQMDITKVASNGSSSTLTLFKSGSLEAKIRPLAPLMLPTPSYDSNAGSPSLSPSTPCSSSSFSIDKTDNHDTFGFSADTVDMRKEDERMKTFEKWPVSFLSGEQLARNGFYYLGRRDEARCAFCKVEIMRWVEGDDPAKDHQRWAPQCPFVRKLNGTAAADTGSSGQDECGARAAPSGTSPPRMAGPVHPRYASEAARLRSFKDWPRCMRQKPEELAEAGFFYTGQGDKTKCFYCDGGLKDWENHDVPWEQHARWFDRCAYVQLVKGREYVQKVISEACEVSASEAERDVAPARTAEPSPPAEAPENSVDDSKLCKICYAEERNVCFVPCGHVVACAKCALAADKCPMCRRTFQNAVRLYFS
modifications: GST fusion when recombinant; fall armyworm inhibitor of apoptosis protein (SfIAP)
For the molecule B2, the “suppression of Fas-induced apoptosis” value in assay [1] is on record as “ineffective at suppressing Fas-induced apoptosis”. Besides, the “binding to caspase-3” value in assay [2] is listed as “neither bound”.
